Results taken from publication PMC12363196, “High level of carbapenem resistance and transmission ability of blaIMP-26 in multidrug-resistant Enterobacter xiangfangensis isolates from China” (mSystems, 2025).

Experiments:
Experiment in all cases: purified protein
Settings in all cases: 50 mM HEPES pH 7.5, 250 mM NaCl, 100 µM ZnCl2, 37 °C, BSA 20 µg/mL in dilution buffer
[1] = test system: CO/N=C(\C(=O)N[C@@H]1C(=O)N2C(C(=O)[O-])=C(C[N+]3(C)CCCC3)CS[C@H]12)c1csc(N)n1
[2] = test system: CC(C)(O/N=C(\C(=O)N[C@@H]1C(=O)N2C(C(=O)[O-])=C(C[n+]3ccccc3)CS[C@H]12)c1csc(N)n1)C(=O)O
[3] = test system: C[C@@H](O)[C@H]1C(=O)N2C(C(=O)O)=C(S[C@@H]3CN[C@H](C(=O)N(C)C)C3)[C@H](C)[C@H]12
[4] = test system: CO/N=C(\C(=O)N[C@@H]1C(=O)N2C(C(=O)O)=C(COC(C)=O)CS[C@H]12)c1csc(N)n1
[5] = test system: C[C@@H](O)[C@H]1C(=O)N2C(C(=O)O)=C(SCCN=CN)C[C@H]12

IMP-26 (Pseudomonas aeruginosa)
Km [1]: 497.1 µM | kcat [1]: 37.58 s⁻¹ | kcat/Km [1]: 76000 M⁻¹ s⁻¹ | Km [2]: 677.2 µM | kcat [2]: 38.86 s⁻¹ | kcat/Km [2]: 57000 M⁻¹ s⁻¹ | Km [3]: 218.8 µM | kcat [3]: 75.08 s⁻¹ | kcat/Km [3]: 343000 M⁻¹ s⁻¹ | Km [4]: 192.1 µM | kcat [4]: 31.92 s⁻¹ | kcat/Km [4]: 166000 M⁻¹ s⁻¹ | Km [5]: 932.6 µM | kcat [5]: 159.51 s⁻¹ | kcat/Km [5]: 171000 M⁻¹ s⁻¹
